From patent publication US20090136503A1 (BEIJING COTIMES BIOTECH, published 2009)

Columns and labels:
[1] = target: TRAIL-R1 and/or TRAIL-R2 on human cancer cells; experiment: cell-based or functional assay
[2] = target: T1, TRAIL-R2 on the surface of human tumor cells (human, UniProt O14763 56-440); experiment: cell-based or functional assay
[3] = target: T2, TRAIL-R4-Fc fusion protein (human, UniProt Q9UBN6 56-211); experiment: ELISA: plate coated with TRAIL-R4-Fc at 1 µg/ml, HRP goat anti-mouse IgG1, TMB
T2 construct: The origin of the protein is not described; also called TRAIL-R4-Fc fusion antigen; not shown: human IgG1 Fc
T2 sequence (looked up): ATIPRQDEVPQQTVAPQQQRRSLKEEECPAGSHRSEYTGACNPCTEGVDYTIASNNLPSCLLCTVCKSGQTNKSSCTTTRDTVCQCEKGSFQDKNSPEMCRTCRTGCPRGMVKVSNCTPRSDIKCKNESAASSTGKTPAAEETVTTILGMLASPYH

[4] = target: T3, BSA (bovine serum albumin), negative control (bovine, UniProt P02769 25-607); experiment: ELISA: plate coated with BSA (control) at 1 µg/ml, HRP goat anti-mouse IgG1, TMB
[5] = target: T4, TRAIL-R1-Fc fusion protein (human, UniProt O00220 24-239); experiment: ELISA: plate coated with TRAIL-R1-Fc at 1 µg/ml, CTB003 titrated, HRP anti-mouse IgG, TMB, OD 450/650
T4 construct: extracellular domain; also called TRAIL-R1-Fc fusion antigen; not shown: Fc portion of human IgG1

[6] = target: T5, TRAIL-R3-Fc fusion protein (human, UniProt O14798 26-221, limits assumed); experiment: ELISA: plate coated with TRAIL-R3-Fc at 1 µg/ml, CTB003 titrated, HRP anti-mouse IgG, TMB, OD 450/650
T5 construct: The origin of the protein is not described; also called TRAIL-R3-Fc fusion antigen; not shown: human IgG1 Fc
T5 sequence (looked up): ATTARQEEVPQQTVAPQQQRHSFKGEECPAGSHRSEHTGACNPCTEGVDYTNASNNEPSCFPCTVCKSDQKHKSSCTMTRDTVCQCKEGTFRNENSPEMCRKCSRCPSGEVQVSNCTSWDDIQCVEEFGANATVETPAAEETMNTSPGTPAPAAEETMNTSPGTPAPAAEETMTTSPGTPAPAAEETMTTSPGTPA

[7] = target: T6, Heterodimeric TRAIL-R1-Fc/TRAIL-R2-Fc fusion protein (human, UniProt O00220 24-239; O14763 56-210); experiment: ELISA: plate coated with TRAIL-R1/TRAIL-R2-Fc heterodimer at 1 µg/ml, CTB003 titrated, HRP anti-mouse IgG, TMB, OD 450/650
T6 construct: extracellular domain; also called TRAIL-R1/TRAIL-R2 dimer; TRAIL-R1/TRAIL-R2 heterodimer antigen; not shown: Fc portion of human IgG1

[8] = target: T4, TRAIL-R1-Fc fusion protein; experiment: ELISA: plate coated with TRAIL-R1-Fc at 1 µg/ml, HRP goat anti-human kappa, TMB
[9] = target: T5, TRAIL-R3-Fc fusion protein; experiment: ELISA: plate coated with TRAIL-R3-Fc at 1 µg/ml, HRP goat anti-human kappa, TMB
[10] = target: T2, TRAIL-R4-Fc fusion protein; experiment: ELISA: plate coated with TRAIL-R4-Fc at 1 µg/ml, HRP goat anti-human kappa, TMB
[11] = target: T3, BSA (bovine serum albumin), negative …; experiment: ELISA: plate coated with BSA (control) at 1 µg/ml, HRP goat anti-human kappa, TMB
[12] = target: T6, Heterodimeric TRAIL-R1-Fc/TRAIL-R2-Fc …; experiment: ELISA: plate coated with TRAIL-R1/TRAIL-R2-Fc heterodimer at 1 µg/ml, HRP goat anti-human kappa, TMB
[13] = target: T1, TRAIL-R2 on the surface of human tumor …; experiment: cell-based or functional assay; remark: listed apart in the source
[14] = target: Human IgG1 (control antigen) (human); experiment: ELISA; human IgG1 captured on goat anti-human IgG, antibody at 2 µg/ml
[15] = target: T5, TRAIL-R3-Fc fusion protein; experiment: ELISA: plate coated with TRAIL-R3-Fc at 1 µg/ml, HRP goat anti-mouse IgG, TMB
[16] = target: T2, TRAIL-R4-Fc fusion protein; experiment: ELISA: plate coated with TRAIL-R4-Fc at 1 µg/ml, HRP goat anti-mouse IgG, TMB

T3 sequence (P02769 25-607 limits assumed): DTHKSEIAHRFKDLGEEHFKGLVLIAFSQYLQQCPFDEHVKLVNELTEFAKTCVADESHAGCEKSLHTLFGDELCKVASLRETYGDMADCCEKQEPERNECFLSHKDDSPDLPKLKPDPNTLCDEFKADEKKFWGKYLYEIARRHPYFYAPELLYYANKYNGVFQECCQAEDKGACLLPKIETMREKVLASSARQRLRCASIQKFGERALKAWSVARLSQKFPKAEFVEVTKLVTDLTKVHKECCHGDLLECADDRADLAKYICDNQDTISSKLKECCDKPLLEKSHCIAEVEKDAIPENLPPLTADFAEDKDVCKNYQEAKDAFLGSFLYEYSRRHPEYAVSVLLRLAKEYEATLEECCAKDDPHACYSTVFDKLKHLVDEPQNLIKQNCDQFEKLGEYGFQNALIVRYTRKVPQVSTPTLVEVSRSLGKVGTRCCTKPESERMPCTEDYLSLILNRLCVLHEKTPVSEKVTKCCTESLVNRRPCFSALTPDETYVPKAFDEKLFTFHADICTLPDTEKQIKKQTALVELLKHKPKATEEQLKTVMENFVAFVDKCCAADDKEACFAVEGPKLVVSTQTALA
T4 sequence (O00220 24-239): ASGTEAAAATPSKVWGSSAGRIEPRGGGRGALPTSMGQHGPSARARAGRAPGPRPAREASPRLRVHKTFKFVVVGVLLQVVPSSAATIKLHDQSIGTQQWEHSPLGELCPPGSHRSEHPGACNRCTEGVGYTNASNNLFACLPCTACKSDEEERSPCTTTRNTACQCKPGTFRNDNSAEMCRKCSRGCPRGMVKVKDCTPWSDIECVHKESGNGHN

B1: CTB003 murine monoclonal antibody (hybridoma CGMCC 1665) (antibody, mouse IgG1, V domains shown)
VH: EVHLVESGGGLVRPGGSLKLSCAASGFAFSSYDMSWVRQTPEKRLEWVAYISDGGGITYYPDTMKGRLTISRDNAKNTLSLQMSSLKSEDTAMYYCARHITMVVGPFAYWGQGTLVTVSA
VL: DIQMTQSSSSFSVSLGDRVTITCKAGEDIYNRLAWYQQKPGNAPRLLISGATNLETGVPSRFSGSGSGKDYTLSITSLQTEDVATYYCQQYWSTPLTFGAGTKLELK
notes: also called murine CTB003; parental murine CTB003
Work on B1 yielded an IC50 (ng/ml), killing of Carov 3 cells, ATPLite cell viability [1] of 24.6 ng/mL, an IC50 (ng/ml), killing of Colo205 cells, ATPLite cell viability [1] of 7.1 ng/mL and an IC50 (ng/ml), killing of Du145 cells, ATPLite cell viability [1] of 25.3 ng/mL. It also gave an IC50 (ng/ml), killing of H-2122 cells, ATPLite cell viability [1] of 28.5 ng/mL, an IC50 (ng/ml), killing of MDA231 cells, ATPLite cell viability [1] of 3.8 ng/mL and an IC50 (ng/ml), killing of MIAcap cells, ATPLite cell viability [1] of 13.2 ng/mL. The “IC50 (read off the curve); cell viability (%) of Jurkat cells, ATPLite, 16 h” value [2] was roughly 0.02 µg/mL, the binding result [3] was “no binding (tested: 1000 ng/ml)” and the binding result [4] was “no binding (tested: 1000 ng/ml)”. The “EC50 (read off the curve)” value [5] was roughly 0.02 µg/mL, the binding result [6] was “no binding (tested: 10^4 ng/ml)” and the “EC50 (read off the curve)” value [7] was roughly 0.02 µg/mL.

B2: Human chimeric CTB003 (mouse-human chimeric antibody) (antibody, human IgG1, V domains shown)
VH: EVHLVESGGGLVRPGGSLKLSCAASGFAFSSYDMSWVRQTPEKRLEWVAYISDGGGITYYPDTMKGRFTISRDNAKNTLSLQMSSLKSEDTAMYYCARHITMVVGPFAYWGQGTLVTVSA
VL: DIQMTQSSSSFSVSLGDRVTITCKASEDIYNRLAWYQQKPGNAPRLLISGATSLETGVPSRFSGSGSGKDYTLSITSLQTEDVATYYCQQYWSTPLTFGAGTKLELKR
notes: Human IgG1 / kappa constant regions, made in CHO cells; also called hCTB003; HuCTB003
B2: binds [8]; no binding (tested: 1000 ng/ml) [9]; no binding (tested: 1000 ng/ml) [10]. B2: no binding (tested: 1000 ng/ml) [11]; binds [12].

B3: CTB006 murine monoclonal antibody against TRAIL-R2 (hybridoma CGMCC 1691) (antibody, V domains shown)
VH: QVQLQQPGPELVKPGASVRMSCKASGYTFTSYFIHWVKQRPGQGLEWIGWIYPGNVNTKYSEKFKGKATLTADKSSSTAYMQFSSLTSEDSAVYFCARGEAGYFDYWGQGTTLTVSS
VL: DIVMTQSHKFMSTSVGDRVSITCKASQDVSTAVAWYQQKPGQSPRLLIYWASTRHTGVPDRFTGSGSGTDYTLTISSVQAEDQALYYCQQHYRTPWTFGGGTKLEIK
notes: Murine monoclonal antibody; also called Anti-TRAIL-R2 (CTB006); CTB006-HRP
In the case of B3, the “IC50 (ng/ml), killing of Carov 3 cells, ATPLite cell viability” value [13] is reported as 17.4 ng/mL, the “IC50 (ng/ml), killing of Colo205 cells, ATPLite cell viability” value [13] is reported as 5.8 ng/mL and the “IC50 (ng/ml), killing of Du145 cells, ATPLite cell viability” value [13] is reported as 55.6 ng/mL. The “IC50 (ng/ml), killing of H-2122 cells, ATPLite cell viability” value [13] was 44.1 ng/mL, the “IC50 (ng/ml), killing of MDA231 cells, ATPLite cell viability” value [13] was 2.2 ng/mL and the “IC50 (ng/ml), killing of MIAcap cells, ATPLite cell viability” value [13] was 9.5 ng/mL. For the same binder, the “IC50 (read off the curve); cell viability (%) of Jurkat cells, ATPLite, 16 h” value [2] was roughly 0.01 µg/mL, the OD 450 nm/650 nm [14] was 0.028 OD and the binding result [15] was “no binding (tested: 1000 ng/ml)”. B3: no binding (tested: 1000 ng/ml) [16].
